Source: publication PMC6769930, “Endoglin Protein Interactome Profiling Identifies TRIM21 and Galectin-3 as New Binding Partners” (Cells, 2019)

B1: RAD51 associated protein 1 (RAD51AP1) (natural protein, human, UniProt Q96B01-2 1-335, looked up)
chain: MVRPVRHKKPVNYSQFDHSDSDDDFVSATVPLNKKSRTAPKELKQDKPKPNLNNLRKEEIPVQEKTPKKRMALDDKLYQRDLEVALALSVKELPTVTTNVQNSQDKSIEKHGSSKIETMNKSPHISNCSVASDYLDLDKITVEDDVGGVQGKRKAASKAAAQQRKILLEGSDGDSANDTEPDFAPGEDSEDDSDFCESEDNDEDFSMRKSKVKEIKKKEVKVKSPVEKKEKKSKSKCNALVTSVDSAPAAVKSESQSLPKKVSLSSDTTRKPLEIRSPSAESKKPKWVPPAASGGSRSSSSPLVVVSVKSPNQSLRLGLSRLARVKPLHPNATST
notes: human RAD51 associated protein 1; source: bought: ProtoArray human protein Microarray v5.0 (Life Technologies), individually purified and arrayed
B2: Family with sequence similarity 126, member B (FAM126B) (natural protein, human, UniProt Q8IXS8 1-530, looked up)
chain: MLGTDRCVVEEWLSEFKALPDTQITSYAATLHRKKTLVPALYKVIQDSNNELLEPVCHQLFELYRSSEVRLKRFTLQFLPELMWVYLRLTVSRDRQSNGCIEALLLGIYNLEIADKDGNNKVLSFTIPSLSKPSIYHEPSTIGSMALTEGALCQHDLIRVVYSDLHPQRETFTAQNRFEVLSFLMLCYNSAIVYMPASSYQSLCRMGSRVCVSGFPRQHEKHWKELCGRIVLDPEFMVQLLTGVYYAMYNGQWDLGQEVLDDIIYRAQLELFSQPLLVANAMKNSLPFDAPDSTQEGQKVLKVEVTPTVPRISRTAITTASIRRHRWRREGAEGVNGGEESVNLNDADEGFSSGASLSSQPIGTKPSSSSQRGSLRKVATGRSAKDKETASAIKSSESPRDSVVRKQYVQQPTDLSVDSVELTPMKKHLSLPAGQVVPKINSLSLIRTASASSSKSFDYVNGSQASTSIGVGTEGGTNLAANNANRYSTVSLQEDRLGQAGEGKELLSPGAPLTKQSRSPSFNMQLISQV
notes: human FAM126B; source: bought: ProtoArray human protein Microarray v5.0 (Life Technologies), individually purified and arrayed
B3: Potassium voltage-gated channel, shaker-related subfamily, beta member 1 (KCNAB1), transcript variant 1 (natural protein, human, UniProt Q14722-1 1-419, looked up)
chain: MLAARTGAAGSQISEENTKLRRQSGFSVAGKDKSPKKASENAKDSSLSPSGESQLRARQLALLREVEMNWYLKLCDLSSEHTTVCTTGMPHRNLGKSGLRVSCLGLGTWVTFGGQISDEVAERLMTIAYESGVNLFDTAEVYAAGKAEVILGSIIKKKGWRRSSLVITTKLYWGGKAETERGLSRKHIIEGLKGSLQRLQLEYVDVVFANRPDSNTPMEEIVRAMTHVINQGMAMYWGTSRWSAMEIMEAYSVARQFNMIPPVCEQAEYHLFQREKVEVQLPELYHKIGVGAMTWSPLACGIISGKYGNGVPESSRASLKCYQWLKERIVSEEGRKQQNKLKDLSPIAERLGCTLPQLAVAWCLRNEGVSSVLLGSSTPEQLIENLGAIQVLPKMTSHVVNEIDNILRNKPYSKKDYRS
notes: human KCNAB1, transcript variant 1; source: bought: ProtoArray human protein Microarray v5.0 (Life Technologies), individually purified and arrayed
B4: HIRA interacting protein 3 (HIRIP3) (natural protein, human, UniProt Q9BW71-1 1-556, looked up)
chain: MAREKEMQEFTRSFFRGRPDLSTLTHSIVRRRYLAHSGRSHLEPEEKQALKRLVEEELLKMQVDEAASREDKLDLTKKGKRPPTPCSDPERKRFRFNSESESGSEASSPDYFGPPAKNGVAAEVSPAKEENPRRASKAVEESSDEERQRDLPAQRGEESSEEEEKGYKGKTRKKPVVKKQAPGKASVSRKQAREESEESEAEPVQRTAKKVEGNKGTKSLKESEQESEEEILAQKKEQREEEVEEEEKEEDEEKGDWKPRTRSNGRRKSAREERSCKQKSQAKRLLGDSDSEEEQKEAASSGDDSGRDREPPVQRKSEDRTQLKGGKRLSGSSEDEEDSGKGEPTAKGSRKMARLGSTSGEESDLEREVSDSEAGGGPQGERKNRSSKKSSRKGRTRSSSSSSDGSPEAKGGKAGSGRRGEDHPAVMRLKRYIRACGAHRNYKKLLGSCCSHKERLSILRAELEALGMKGTPSLGKCRALKEQREEAAEVASLDVANIISGSGRPRRRTAWNPLGEAAPPGELYRRTLDSDEERPRPAPPDWSHMRGIISSDGESN
notes: source: bought: ProtoArray human protein Microarray v5.0 (Life Technologies), individually purified and arrayed
B5: Origin recognition complex, subunit 6 like (yeast) (ORC6L) (natural protein, human, UniProt Q9Y5N6 1-252, looked up)
chain: MGSELIGRLAPRLGLAEPDMLRKAEEYLRLSRVKCVGLSARTTETSSAVMCLDLAASWMKCPLDRAYLIKLSGLNKETYQSCLKSFECLLGLNSNIGIRDLAVQFSCIEAVNMASKILKSYESSLPQTQQVDLDLSRPLFTSAALLSACKILKLKVDKNKMVATSGVKKAIFDRLCKQLEKIGQQVDREPGDVATPPRKRKKIVVEAPAKEMEKVEEMPHKPQKDEDLTQDYEEWKRKILENAASAQKATAE
notes: human origin recognition complex subunit 6; source: bought: ProtoArray human protein Microarray v5.0 (Life Technologies), individually purified and arrayed
B6: Coiled-coil domain containing 55 (CCDC55), transcript variant 1 (natural protein, human, UniProt Q9H0G5 1-558, looked up)
chain: MAIPGRQYGLILPKKTQQLHPVLQKPSVFGNDSDDDDETSVSESLQREAAKKQAMKQTKLEIQKALAEDATVYEYDSIYDEMQKKKEENNPKLLLGKDRKPKYIHNLLKAVEIRKKEQEKRMEKKIQREREMEKGEFDDKEAFVTSAYKKKLQERAEEEEREKRAAALEACLDVTKQKDLSGFYRHLLNQAVGEEEVPKCSFREARSGIKEEKSRGFSNEVSSKNRIPQEKCILQTDVKVEENPDADSDFDAKSSADDEIEETRVNCRREKVIETPENDFKHHRSQNHSRSPSEERGHSTRHHTKGSRTSRGHEKREDQHQQKQSRDQENHYTDRDYRKERDSHRHREASHRDSHWKRHEQEDKPRARDQRERSDRVWKREKDREKYSQREQERDRQQNDQNRPSEKGEKEEKSKAKEEHMKVRKERYENNDKYRDREKREVGVQSSERNQDRKESSPNSRAKDKFLDQERSNKMRNMAKDKERNQEKPSNSESSLGAKHRLTEEGQEKGKEQERPPEAVSKFAKRNNEETVMSARDRYLARQMARVNAKTYIEKEDD
notes: human CCDC55, transcript variant 1; source: bought: ProtoArray human protein Microarray v5.0 (Life Technologies), individually purified and arrayed
B7: Cortactin (CTTN), transcript variant 2 (natural protein, human, UniProt Q14247-3 1-513, looked up)
chain: MWKASAGHAVSIAQDDAGADDWETDPDFVNDVSEKEQRWGAKTVQGSGHQEHINIHKLRENVFQEHQTLKEKELETGPKASHGYGGKFGVEQDRMDKSAVGHEYQSKLSKHCSQVDSVRGFGGKFGVQMDRVDQSAVGFEYQGKTEKHASQKDYSSGFGGKYGVQADRVDKSAVGFDYQGKTEKHESQRDYSKGFGGKYGIDKDKVDKSAVGFEYQGKTEKHESQKDYVKGFGGKFGVQTDRQDKCALGWDHQEKLQLHESQKDYSKGFGGKYGVQKDRMDKNASTFEDVTQVSSAYQKTVPVEAVTSKTSNIRANFENLAKEKEQEDRRKAEAERAQRMAKERQEQEEARRKLEEQARAKTQTPPVSPAPQPTEERLPSSPVYEDAASFKAELSYRGPVSGTEPEPVYSMEAADYREASSQQGLAYATEAVYESAEAPGHYPAEDSTYDEYENDLGITAVALYDYQAAGDDEISFDPDDIITNIEMIDDGWWRGVCKGRYGLFPANYVELRQ
notes: as for B4
B8: Family with sequence similarity 39, member B (FAM39B) (natural protein, human, UniProt Q6VEQ5 1-465, looked up)
chain: MTPVRMQHSLAGQTYAVPLIQPDLRREEAVQQMADALQYLQKVSGDIFSRISQQVEQSRSQVQAIGEKVSLAQAKIEKIKGSKKAIKVFSSAKYPAPERLQEYGSIFTGAQDPGLQRRPRHRIQSKHRPLDERALQEKLKDFPVCVSTKPEPEDDAEEGLGGLPSNISSVSSLLLFNTTENLYKKYVFLDPLAGAVTKTHVMLGAETEEKLFDAPLSISKREQLEQQVPENYFYVPDLGQVPEIDVPSYLPDLPGIANDLMYIADLGPGIAPSAPGTIPELPTFHTEVAEPLKVDLQDGVLTPPPPPPPPPPAPEVLASAPPLPPSTAAPVGQGARQDDSSSSASPSVQGAPREVVDPSGGRATLLESIRQAGGIGKAKLRSMKERKLEKKKQKEQEQVRATSQGGHLMSDLFNKLVMRRKGISGKGPGAGEGPGGAFARVSDSIPPLPPPQQPQAEEDEDDWES
notes: human FAM39B; source: bought: ProtoArray human protein Microarray v5.0 (Life Technologies), individually purified and arrayed
B9: Spliceosome-associated protein CWC15 homolog (HSPC148) (natural protein, human, UniProt Q9P013 1-229, looked up)
chain: MTTAARPTFEPARGGRGKGEGDLSQLSKQYSSRDLPSHTKIKYRQTTQDAPEEVRNRDFRRELEERERAAAREKNRDRPTREHTTSSSVSKKPRLDQIPAANLDADDPLTDEEDEDFEEESDDDDTAALLAELEKIKKERAEEQARKEQEQKAEEERIRMENILSGNPLLNLTGPSQPQANFKVKRRWDDDVVFKNCAKGVDDQKKDKRFVNDTLRSEFHKKFMEKYIK
notes: human spliceosome-associated protein CWC15 homolog; source: bought: ProtoArray human protein Microarray v5.0 (Life Technologies), individually purified and arrayed

Each binder was assayed against T1, recombinant human soluble endoglin (sEng; Glu26-Gly586) (human, UniProt P17813 26-586) (assay: peptide or protein array; ProtoArray human protein Microarray v5.0 (over 9000 human proteins arrayed) probed with recombinant sEng in two replicates; detection with anti-endoglin mAb SN6h and HRP secondary antibody; hits with Z-score >=2.0 in both arrays). Settings: both partners purified.
T1 construct: human endoglin (CD105), extracellular domain, Glu26-Gly586; The same bought protein was the probe of the array and the analyte of the BLI; also called recombinant human endoglin/CD105 protein; source: bought: R&D Systems (1097-EN), purified recombinant
T1 sequence (looked up): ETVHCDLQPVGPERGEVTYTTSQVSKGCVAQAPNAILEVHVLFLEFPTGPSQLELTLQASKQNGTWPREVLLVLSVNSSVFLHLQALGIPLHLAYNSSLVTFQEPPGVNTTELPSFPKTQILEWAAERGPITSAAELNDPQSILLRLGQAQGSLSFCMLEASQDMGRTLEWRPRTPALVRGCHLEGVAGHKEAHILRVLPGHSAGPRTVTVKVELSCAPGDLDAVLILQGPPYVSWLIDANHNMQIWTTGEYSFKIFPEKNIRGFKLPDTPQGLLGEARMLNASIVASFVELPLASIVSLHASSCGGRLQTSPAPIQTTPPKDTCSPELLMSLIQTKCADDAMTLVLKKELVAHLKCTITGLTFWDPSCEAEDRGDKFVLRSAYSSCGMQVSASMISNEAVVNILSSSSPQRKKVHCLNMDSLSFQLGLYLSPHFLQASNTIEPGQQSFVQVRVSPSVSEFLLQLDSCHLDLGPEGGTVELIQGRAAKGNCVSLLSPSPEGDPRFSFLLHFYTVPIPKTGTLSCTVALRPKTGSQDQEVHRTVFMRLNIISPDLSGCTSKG

Binding result, binds:
B1, B2, B3, B4, B5, B6, B7, B8, B9
